Earlier results on one substance are cited in PMC7424061.

For the data set, the target named is p53 TAD (Homo sapiens) (UniProt P04637).
p53 TAD (Homo sapiens), sequence (P04637 1-61): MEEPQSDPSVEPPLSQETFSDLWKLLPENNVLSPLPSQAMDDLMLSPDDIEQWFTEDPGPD

azurin, sequence (P00282 21-148): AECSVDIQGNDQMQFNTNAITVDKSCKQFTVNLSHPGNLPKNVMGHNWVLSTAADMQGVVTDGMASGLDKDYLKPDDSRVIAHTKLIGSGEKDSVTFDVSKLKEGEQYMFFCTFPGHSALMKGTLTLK

As to azurin (from UniProt P00282), the dissociation constant Kd was 7 µM.

One may read the Kd as a measure of binding affinity in units of concentration.
